B1: EEHEE_rd3_1049 (parent)
chain: TTVKLGDIKVTFDNPEKAKKYAQKLAKIYQLTVHVHGDTIHVK

Variants of: B1
Experiment: folding stability dG (cDNA display proteolysis); higher = more stable
Details: PBS, room temperature

Folding stability dG [kcal/mol]: each site, then its substitutions
D7: H 2.79 | I 2.64 | K 3.17 | L 2.69 | M 2.63 | N 2.85 | P 2.31 | Q 2.5 | R 3.21 | S 2.73 | T 2.56 | V 2.52 | W 3.24 | Y 2.94
I8: A 1.18 | C 3.42 | D 0.538 | E 0.747 | F 2.95 | G 0.616 | H 2.62 | K 1.83 | L 2.19 | M 2.1 | N 1.21 | P 0.237 | Q 1.28 | R 1.94 | S 1.37 | T 1.54 | V 1.88 | W 3.22 | Y 2.87
K9: A 2.06 | C 3.33 | D 1.28 | E 2.27 | F 2.24 | G 1.25 | H 2.06 | I 2.46 | L 2.39 | M 2.34 | N 1.76 | P 0.591 | Q 2.06 | R 2.23 | S 2.43 | T 2.42 | V 2.38 | W 2.47 | Y 2.42
V10: A 0.985 | C 2.92 | D 0.272 | E 0.411 | F 2.35 | G 0.275 | H 1.06 | I 2.48 | K 1.72 | L 2.08 | M 2 | N 0.575 | P 0.26 | Q 0.914 | R 1.79 | S 0.658 | T 1.12 | W 3.21 | Y 1.95
T11: A 1.48 | C 2.98 | D 1.08 | E 1.58 | F 2.51 | G 0.999 | H 2.31 | I 2.33 | K 2.06 | L 2.21 | M 2.15 | N 1.65 | P 1.05 | Q 1.88 | R 2.24 | S 1.77 | V 2.42 | W 2.74 | Y 2.69
F12: A 0.107 | C 1.74 | D -0.148 | E 0.041 | G -0.438 | H 0.172 | I 0.634 | K 0.115 | L 0.617 | M 0.628 | N -0.055 | P 0.089 | Q 0.131 | R 0.188 | S -0.062 | T 0.094 | V 0.419 | W 0.742 | Y 0.563
D13: A 2.11 | C 2.6 | E 1.9 | F 1.93 | G 1.69 | H 1.86 | I 1.96 | K 2.2 | L 2.08 | M 2.12 | N 1.98 | P 1.58 | Q 2.1 | R 2.13 | S 2.25 | T 2.16 | V 1.89 | W 2.01 | Y 1.85
N14: A 1.18 | C 2.02 | D 2.38 | E 1.4 | F 1.2 | G 1.05 | H 1.61 | I 1.22 | K 1.25 | L 1.32 | M 1.2 | P 0.431 | Q 1.25 | R 1.26 | S 2.12 | T 1.98 | V 1.12 | W 1.34 | Y 1.05
P15: A 2.09 | D 1.16 | E 1.72 | F 3.11 | G 1.3 | H 2.04 | I 2.01 | K 1.78 | L 2.08 | M 2.1 | N 1.43 | Q 1.65 | R 1.88 | S 1.59 | T 1.4 | V 1.96 | W 2.47 | Y 2.53
E16: A 1.94 | C 2.66
